{
  "source": "patent US12186373B2",
  "about": "“Compositions in the form of an injectable aqueous solution comprising amylin, an amylin agonist receptor or an amylin analogue and a co-polyamino acid” (ADOCIA, priority 2017, dated 2025)",
  "origin": "cited, not measured here",
  "settings": "acidic pH",
  "data": [
    {"substance": "amylin: peptide of 37 amino acids which is stored and co-secreted with insulin (KCNTATCATQRLANFLVHSSNNFGAILSSTNVGSNTY; Islet amyloid polypeptide; UniProt P10997 34-70, looked up)", "values": [
      {"measurement": "time for which amylin is stable", "value": "about fifteen minutes"}
    ]}
  ]
}
